Experimental data from article PMC7203112, “Structural basis for the complex DNA binding behavior of the plant stem cell regulator WUSCHEL”.
Changes are numbered by the printed parent chain.

T1: MBP-WUS-FL (Arabidopsis thaliana, UniProt Q9SB92 1-292)
T1 sequence: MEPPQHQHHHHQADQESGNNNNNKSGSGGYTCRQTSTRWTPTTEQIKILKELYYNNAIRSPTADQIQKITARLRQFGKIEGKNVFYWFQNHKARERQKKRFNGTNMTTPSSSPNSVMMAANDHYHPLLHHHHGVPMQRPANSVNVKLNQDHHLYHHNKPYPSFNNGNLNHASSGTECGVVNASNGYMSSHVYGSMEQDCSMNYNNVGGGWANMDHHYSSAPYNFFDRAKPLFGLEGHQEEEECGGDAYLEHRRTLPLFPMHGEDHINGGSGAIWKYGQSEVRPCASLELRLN

T2: WUS-HD R94K (Arabidopsis thaliana, UniProt Q9SB92 34-103, R94K)
T2 sequence: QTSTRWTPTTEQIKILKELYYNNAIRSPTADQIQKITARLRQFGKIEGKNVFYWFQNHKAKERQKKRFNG

T3: WUS-HD T35R (Arabidopsis thaliana, UniProt Q9SB92 34-103, T35R)
T3 sequence: T2 sequence with T2R, K61R

T4: WUS-HD S36R (Arabidopsis thaliana, UniProt Q9SB92 34-103, S36R)
T4 sequence: T2 sequence with S3R, K61R

T5: WUS-HD RRK (Arabidopsis thaliana, UniProt Q9SB92 34-103, T35R;S36R;R94K)
T5 sequence: T2 sequence with T2R, S3R

T6: WUS-HD F101A (Arabidopsis thaliana, UniProt Q9SB92 34-103, F101A)
T6 sequence: T2 sequence with K61R, F68A

B1: f_TAAT (dsDNA)
DNA 1: CAATGTGTTAATGGGTTGTT
DNA 2: AACAACCCATTAACACATTG
B2: f_TGAA (dsDNA)
DNA 1: CATCGTCGTTCATTCAATGGG
DNA 2: CCCATTGAATGAACGACGATG

What was measured:
[1] = molecular target: T1, MBP-WUS-FL; assay: EMSA; MST: 20 mM Tris-HCl pH 8.0, 75 mM NaCl, 10 mM MgCl2, 0.05% Tween-20, 20 C, 50 nM YFP-WUS; ITC: same without Tween, 20 C; EMSA: 10 mM Tris-HCl pH 8.0, 75 mM NaCl, 50 ug/ml poly(dI-dC), 1 mM EDTA, 1 mM DTT, 5% glycerol; conditions: protein: recombinant; tags: N-terminal His6-MBP; chain copies: 2; label: Cy5; blunt
[2] = molecular target: T2, WUS-HD R94K; assay: EMSA; like wt; MST: 20 mM Tris-HCl pH 8.0, 75 mM NaCl, 10 mM MgCl2, 0.05% Tween-20, 20 C, 50 nM YFP-WUS; ITC: same without Tween, 20 C; EMSA: 10 mM Tris-HCl pH 8.0, 75 mM NaCl, 50 ug/ml poly(dI-dC), 1 mM EDTA, 1 mM DTT, 5% glycerol; conditions: protein: recombinant; tags: none after TEV cleavage; label: Cy5; blunt
[3] = molecular target: T3, WUS-HD T35R; assay: EMSA; predominantly monomer; MST: 20 mM Tris-HCl pH 8.0, 75 mM NaCl, 10 mM MgCl2, 0.05% Tween-20, 20 C, 50 nM YFP-WUS; ITC: same without Tween, 20 C; EMSA: 10 mM Tris-HCl pH 8.0, 75 mM NaCl, 50 ug/ml poly(dI-dC), 1 mM EDTA, 1 mM DTT, 5% glycerol; conditions: protein: recombinant; tags: none after TEV cleavage; label: Cy5; blunt
[4] = molecular target: T4, WUS-HD S36R; assay: as above; conditions: protein: recombinant; tags: none after TEV cleavage; label: Cy5; blunt
[5] = molecular target: T5, WUS-HD RRK; assay: EMSA; similar to T35R and S36R; MST: 20 mM Tris-HCl pH 8.0, 75 mM NaCl, 10 mM MgCl2, 0.05% Tween-20, 20 C, 50 nM YFP-WUS; ITC: same without Tween, 20 C; EMSA: 10 mM Tris-HCl pH 8.0, 75 mM NaCl, 50 ug/ml poly(dI-dC), 1 mM EDTA, 1 mM DTT, 5% glycerol; conditions: protein: recombinant; tags: none after TEV cleavage; label: Cy5; blunt
[6] = molecular target: T3, WUS-HD T35R; assay: EMSA; MST: 20 mM Tris-HCl pH 8.0, 75 mM NaCl, 10 mM MgCl2, 0.05% Tween-20, 20 C, 50 nM YFP-WUS; ITC: same without Tween, 20 C; EMSA: 10 mM Tris-HCl pH 8.0, 75 mM NaCl, 50 ug/ml poly(dI-dC), 1 mM EDTA, 1 mM DTT, 5% glycerol; conditions: protein: recombinant; tags: none after TEV cleavage; label: Cy5; blunt
[7] = molecular target: T4, WUS-HD S36R; assay: as above; conditions: protein: recombinant; tags: none after TEV cleavage; label: Cy5; blunt
[8] = molecular target: T6, WUS-HD F101A; assay: EMSA; predominantly monomer; probe called 2xTGAA; MST: 20 mM Tris-HCl pH 8.0, 75 mM NaCl, 10 mM MgCl2, 0.05% Tween-20, 20 C, 50 nM YFP-WUS; ITC: same without Tween, 20 C; EMSA: 10 mM Tris-HCl pH 8.0, 75 mM NaCl, 50 ug/ml poly(dI-dC), 1 mM EDTA, 1 mM DTT, 5% glycerol; conditions: protein: recombinant; tags: none after TEV cleavage; label: Cy5; blunt

Binder	Kd [1] [nM]	binding result [2]	binding result [3]	binding result [4]	binding result [5]	binding result [6]	binding result [7]	binding result [8]
B1	3150 ± 260	binds	binds	binds	binds			
B2	360 ± 60					binds	binds	binds
